Source: US20050202538A1 (Merck KGaA, published 2005)

Molecular target: T1, EPO receptor (expressed on TF-1 cells) (UniProt P19235)
T1 sequence (looked up): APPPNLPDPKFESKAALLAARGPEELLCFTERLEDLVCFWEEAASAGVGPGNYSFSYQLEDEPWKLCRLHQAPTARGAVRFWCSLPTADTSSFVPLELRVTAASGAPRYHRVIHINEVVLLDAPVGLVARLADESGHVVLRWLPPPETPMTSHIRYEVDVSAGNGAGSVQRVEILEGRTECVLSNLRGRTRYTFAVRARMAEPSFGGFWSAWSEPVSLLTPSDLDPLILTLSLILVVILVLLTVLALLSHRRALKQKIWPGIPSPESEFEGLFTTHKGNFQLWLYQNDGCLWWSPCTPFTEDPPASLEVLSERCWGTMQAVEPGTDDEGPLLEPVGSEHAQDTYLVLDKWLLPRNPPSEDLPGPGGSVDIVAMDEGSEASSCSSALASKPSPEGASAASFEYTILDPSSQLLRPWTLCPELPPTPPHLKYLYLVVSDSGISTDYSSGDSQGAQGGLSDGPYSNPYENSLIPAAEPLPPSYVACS
Assay: cell-based or functional assay

ED50, TF-1 cell proliferation (3H-thymidine incorporation); S.D. 0.96, N 10: 2.4 ng/mL
Substance: EPO (Aranesp®) (ligand)
